For the assay, the target named is SARS-CoV-2 S trimer (SARS-CoV-2) (UniProt P0DTC2). Kind of assay: SPR. (In general: In SPR one partner is held on a chip, and binding of the other changes the refractive index at the surface.)
The Kd is the constant that tells how readily two partners part at equilibrium. Lower therefore signals a tighter complex. What is called koff is the rate constant with which the complex falls apart. A low value points to a long-lived complex. What is called kon is a measure of how fast the partners come together. A low value points to slow association. Substance “lectin from Datura stramonium (jimson weed, thorn apple) (natural protein)” gave a dissociation constant Kd of 0.823 nM, an off-rate constant (koff) of 0.00144 s⁻¹ and an association rate constant (kon) of 1.75e+06 M⁻¹ s⁻¹.

Take “erythroagglutinin PHA-E from Phaseolus vulgaris (red kidney bean) (from UniProt P05088 22-275) (natural protein)”: the dissociation constant Kd stood at 160 nM, the off-rate constant (koff) was 0.00331 s⁻¹ and the kon is 20700 M⁻¹ s⁻¹.

With “phytohaemagglutinin PHA-M from Phaseolus vulgaris (red kidney bean) (natural protein)”, the equilibrium dissociation constant (Kd) was found to be 2480 nM, the koff turned out to be 0.0196 s⁻¹ and the kon came to 7890 M⁻¹ s⁻¹.

Substance “leucoagglutinin PHA-L from Phaseolus vulgaris (red kidney bean) (from UniProt P05087 21-272) (natural protein)” displayed an equilibrium dissociation constant (Kd) of 37.6 nM, a koff of 0.00262 s⁻¹ and a kon of 69700 M⁻¹ s⁻¹.

In turn, “Lentil lectin derived from Lens culinaris (natural protein)” showed a Kd of 8.67 nM, a dissociation rate constant (koff) of 0.000919 s⁻¹ and an on-rate constant (kon) of 106000 M⁻¹ s⁻¹.

With “succinyl-concanavalin A (natural protein)”, the Kd was 201000 nM, the koff stood at 0.00148 s⁻¹ and the kon came to 7.37 M⁻¹ s⁻¹.

“lectin from Galanthus nivalis (snowdrop) (natural protein)” displayed a Kd of 1.53 nM, a koff of 0.00121 s⁻¹ and a kon of 792000 M⁻¹ s⁻¹.

The substance “phytohaemagglutinin PHA-P from Phaseolus vulgaris (red kidney bean) (natural protein)” had a Kd of 32.5 nM, a koff of 0.00501 s⁻¹ and an on-rate constant (kon) of 154000 M⁻¹ s⁻¹.

On to “sambucus sieboldiana lectin (natural protein)”, for which the equilibrium dissociation constant (Kd) came to 31.5 nM, the koff stood at 0.000886 s⁻¹ and the kon amounted to 28100 M⁻¹ s⁻¹.

(Values after PMC8330776.)
